What was measured:
[1] = molecular target: T1, human PD-L1-rCD4-His (human); assay: SPR, IgG1 from culture supernatant
T1 construct: Human PD-L1 fused to the monomeric C-terminal rat CD4 domains 3 and 4 tag and His tag; made in HEK293; The entry as printed begins with the signal peptide (MRIF...); also called hPD-L1-rCD4-His; hu-PD-L1-rCD4-His

[2] = molecular target: T2, Cyno PD-L1-rCD4-His (cynomolgus); assay: SPR, IgG1 from culture supernatant
T2 construct: The entry as printed begins with the signal peptide; also called cynomolgus PD-L1-rCD4-His
T2 sequence (chain, as listed by the source limits assumed): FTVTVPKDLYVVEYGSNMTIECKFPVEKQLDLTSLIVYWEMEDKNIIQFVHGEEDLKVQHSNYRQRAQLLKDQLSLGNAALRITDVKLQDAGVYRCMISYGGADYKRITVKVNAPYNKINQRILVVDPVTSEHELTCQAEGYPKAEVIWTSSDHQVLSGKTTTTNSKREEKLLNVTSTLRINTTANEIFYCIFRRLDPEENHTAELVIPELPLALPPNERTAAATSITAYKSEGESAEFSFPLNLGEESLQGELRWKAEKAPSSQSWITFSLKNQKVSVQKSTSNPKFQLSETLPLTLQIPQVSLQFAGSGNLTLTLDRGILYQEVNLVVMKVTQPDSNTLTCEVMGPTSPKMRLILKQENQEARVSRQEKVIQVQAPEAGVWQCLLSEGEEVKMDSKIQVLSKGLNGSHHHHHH

[3] = molecular target: PD-L1 on PD-L1 cells (Promega, CS178103; PD1/PD-L1 Blockade Bioassay J1250/J1255) (UniProt Q9NZQ7 19-290); assay: cell-based or functional assay
Chain of PD-L1 on PD-L1 cells (Promega, CS178103; PD1/PD-L1 Blockade Bioassay J1250/J1255) (Q9NZQ7 19-290): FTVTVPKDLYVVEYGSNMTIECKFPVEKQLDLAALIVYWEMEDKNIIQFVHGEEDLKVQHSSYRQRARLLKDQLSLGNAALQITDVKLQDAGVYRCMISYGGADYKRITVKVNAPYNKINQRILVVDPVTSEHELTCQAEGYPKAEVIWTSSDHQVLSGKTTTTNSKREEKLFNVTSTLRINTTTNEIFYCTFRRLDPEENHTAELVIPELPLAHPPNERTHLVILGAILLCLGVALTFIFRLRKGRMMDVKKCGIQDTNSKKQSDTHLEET

T1 sequence (chain, as listed by the source limits assumed): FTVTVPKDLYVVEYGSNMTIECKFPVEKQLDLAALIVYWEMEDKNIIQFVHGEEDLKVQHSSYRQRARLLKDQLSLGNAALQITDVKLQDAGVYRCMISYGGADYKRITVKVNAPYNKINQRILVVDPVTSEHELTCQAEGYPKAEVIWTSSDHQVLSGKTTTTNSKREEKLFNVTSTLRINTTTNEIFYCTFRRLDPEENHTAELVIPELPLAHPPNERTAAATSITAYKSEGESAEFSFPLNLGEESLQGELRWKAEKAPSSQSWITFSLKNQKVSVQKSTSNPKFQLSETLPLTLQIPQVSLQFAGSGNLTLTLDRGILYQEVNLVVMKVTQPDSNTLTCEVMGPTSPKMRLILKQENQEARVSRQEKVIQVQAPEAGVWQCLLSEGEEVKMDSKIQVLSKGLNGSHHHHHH

Kd [1] [pM] | Kd [2] [pM] | IC50 (nM), PD1/PD-L1 Blockade Bioassay [3] [nM] | Binder
1200 | 1800 | 0.51 | G1/280_02_G02_NS (antibody, human IgG1, IgG1 without LALA, lambda light chain; NG to NS variant of G1/280_02_G02) heavy: not shown light: QSALTQPASVSGSPGQSITISCTGTSSDVGGYNSVSWYQQFPGKAPKLMIFEVTNRPSGVSDRFSGSKSDNTASLTISGLQAEDEAEYYCSSFKRGSTLVVFGGGTKLTVLGQPAAAPSVTLFPPSSEELQANKATLVCLISDFYPGAVTVAWKADSSPVKAGVETTTPSKQSNNKYAASSYLSLTPEQWKSHRSYSCQVTHEGSTVEKTVAPTECS
2660 | 3180 | – | G1/929_01_A01 (antibody, human IgG1, V domains shown, IgG1; The heavy chain as printed has T28) VH: EVQLVQSGAEVKRPGASVKVSCKASGYTFTSYGISWVRQAPGQGLEWMGWISAYGGSTNYAQKLQGRVTMTTDTSTSTAYMELRSLRSDDTAVYYCARDLFPTIFGVSYYYYWGQGTLVTVSS VL: DIQMTQSPSTLSASVRDRVIITCRASQSIGNRLAWYQHKPGKAPKLLIYEASTSETGVPSRFSGSGSGTDFTLTISSLQPEDFATYYCQQSYSTPYTFGQGTKLEIKR
550 | 620 | – | G1/929_01_A05 (antibody, human IgG1, V domains shown, IgG1) VH: EVQLVQSGAEVKRPGASVKVSCKASGYTFTSYGISWVRQAPGQGLEWMGWISAYSGGTNYAQKLQGRVTMTTDTSTSTAYMELRSLRSDDTAVYYCARDLFPTIFGVSYYYYWGQGTLVTVSS VL: DIQMTQSPSTLSASVGDRVTITCRASQSISGRLAWYQQKPGKAPNLLIYEASNLESGVPSRFSGSGSGTEFTLTINSLQPDDFATYYCQQANTFPRVSFGGGTKVEIKR
470 | 600 | – | G1/929_01_A04 (antibody, human IgG1, V domains shown, IgG1; GGST variant of G1/894_08_A05) VH: EVQLVQSGAEVKRPGASVKVSCKASGYTFTSYGISWVRQAPGQGLEWMGWISAYGGSTNYAQKLQGRVTMTTDTSTSTAYMELRSLRSDDTAVYYCARDLFPTIFGVSYYYYWGQGTLVTVSS VL: DIQMTQSPSTLSASVGDRVTITCRASQSISGRLAWYQQKPGKAPNLLIYEASNLESGVPSRFSGSGSGTEFTLTINSLQPDDFATYYCQQANTFPRVSFGGGTKVEIKR
470 | 590 | – | G1/929_01_A07 (antibody, human IgG1, V domains shown, IgG1; GGST variant of G1/894_08_E05) VH: EVQLVQSGAEVKRPGASVKVSCKASGYTFTSYGISWVRQAPGQGLEWMGWISAYGGSTNYAQKLQGRVTMTTDTSTSTAYMELRSLRSDDTAVYYCARDLFPTIFGVSYYYYWGQGTLVTVSS VL: DIQMTQSPSTLSASVGDRVTITCRASQSISGRLAWYQQKPGKAPNLLIYEASNLESGVPSRFSGSGSGTEFTLTISSLQPEDFATYYCQQSYSTPRVTFGQGTKVEIKR
490 | 570 | – | G1/929_01_A09 (antibody, human IgG1, V domains shown, IgG1; SGNA variant of G1/894_08_E05) VH: EVQLVQSGAEVKRPGASVKVSCKASGYTFTSYGISWVRQAPGQGLEWMGWISAYSGNANYAQKLQGRVTMTTDTSTSTAYMELRSLRSDDTAVYYCARDLFPTIFGVSYYYYWGQGTLVTVSS VL: DIQMTQSPSTLSASVGDRVTITCRASQSISGRLAWYQQKPGKAPNLLIYEASNLESGVPSRFSGSGSGTEFTLTISSLQPEDFATYYCQQSYSTPRVTFGQGTKVEIKR
500 | 650 | – | G1/929_01_A08 (antibody, human IgG1, IgG1; SGGT variant of G1/894_08_E05; said to be the same as G1AA/E05v2 but without the LALA mutation) heavy: not shown light: DIQMTQSPSTLSASVGDRVTITCRASQSISGRLAWYQQKPGKAPNLLIYEASNLESGVPSRFSGSGSGTEFTLTISSLQPEDFATYYCQQSYSTPRVTFGQGTKVEIKRTAAAAPSVFIFPPSDEQLKSGTASVVCLLNNFYPREAKVQWKVDNALQSGNSQESVTEQDSKDSTYSLSSTLTLSKADYEKHKLYACEVTHQGLSSPVTKSFNRGEC
420 | 570 | – | G1/894_08_A05 (antibody, human IgG1, V domains shown, IgG1 without LALA, kappa light chain) VH: EVQLVQSGAEVKRPGASVKVSCKASGYTFTSYGISWVRQAPGQGLEWMGWISAYNSNTNYAQKLQGRVTMTTDTSTSTAYMELRSLRSDDTAVYYCARDLFPTIFGVSYYYYWGQGTLVTVSS VL: DIQMTQSPSTLSASVGDRVTITCRASQSISGRLAWYQQKPGKAPNLLIYEASNLESGVPSRFSGSGSGTEFTLTINSLQPDDFATYYCQQANTFPRVSFGGGTKVEIKR
2660 | 3310 | – | G1/929_01_A03 (antibody, human IgG1, V domains shown, IgG1) VH: EVQLVQSGAEVKRPGASVKVSCKASGYTFTSYGISWVRQAPGQGLEWMGWISAYSGNANYAQKLQGRVTMTTDTSTSTAYMELRSLRSDDTAVYYCARDLFPTIFGVSYYYYWGQGTLVTVSS VL: DIQMTQSPSTLSASVRDRVIITCRASQSIGNRLAWYQHKPGKAPKLLIYEASTSETGVPSRFSGSGSGTDFTLTISSLQPEDFATYYCQQSYSTPYTFGQGTKLEIKR
450 | 580 | – | G1/929_01_A06 (antibody, human IgG1, V domains shown, IgG1) VH: EVQLVQSGAEVKRPGASVKVSCKASGYTFTSYGISWVRQAPGQGLEWMGWISAYSGNANYAQKLQGRVTMTTDTSTSTAYMELRSLRSDDTAVYYCARDLFPTIFGVSYYYYWGQGTLVTVSS VL: DIQMTQSPSTLSASVGDRVTITCRASQSISGRLAWYQQKPGKAPNLLIYEASNLESGVPSRFSGSGSGTEFTLTINSLQPDDFATYYCQQANTFPRVSFGGGTKVEIKR
510 | 570 | – | G1/929_01_A11 (antibody, human IgG1, IgG1; said to be the same as G1AA/G12v2 but without LALA) heavy: not shown light: DIQMTQSPSTLSASVGDRVTITCRASQSISGRLAWYQQKPGKAPNLLIYEASNLESGVPSRFSGSGSGTEFTLTISSLQPEDFATYYCQQSYSWPRTFGQGTKVEIKRTAAAAPSVFIFPPSDEQLKSGTASVVCLLNNFYPREAKVQWKVDNALQSGNSQESVTEQDSKDSTYSLSSTLTLSKADYEKHKLYACEVTHQGLSSPVTKSFNRGEC
510 | 660 | – | G1/929_01_A12 (antibody, human IgG1, V domains shown, IgG1) VH: EVQLVQSGAEVKRPGASVKVSCKASGYTFTSYGISWVRQAPGQGLEWMGWISAYSGNANYAQKLQGRVTMTTDTSTSTAYMELRSLRSDDTAVYYCARDLFPTIFGVSYYYYWGQGTLVTVSS VL: DIQMTQSPSTLSASVGDRVTITCRASQSISGRLAWYQQKPGKAPNLLIYEASNLESGVPSRFSGSGSGTEFTLTISSLQPEDFATYYCQQSYSWPRTFGQGTKVEIKR
420 | 600 | – | G1/929_01_A10 (antibody, human IgG1, V domains shown, IgG1) VH: EVQLVQSGAEVKRPGASVKVSCKASGYTFTSYGISWVRQAPGQGLEWMGWISAYGGSTNYAQKLQGRVTMTTDTSTSTAYMELRSLRSDDTAVYYCARDLFPTIFGVSYYYYWGQGTLVTVSS VL: DIQMTQSPSTLSASVGDRVTITCRASQSISGRLAWYQQKPGKAPNLLIYEASNLESGVPSRFSGSGSGTEFTLTISSLQPEDFATYYCQQSYSWPRTFGQGTKVEIKR
